Experimental data: article doi:10.1101/2020.04.28.065904

Target: aa defensin C (mature Aedes albopictus defensin C peptide) (Aedes albopictus)
Experiment: ELISA

| Substance | absorbance |
| --- | --- |
| JEV E protein (recombinant) (natural protein) | 0.95 |
| JEV ED III protein (ED III domain of the E protein, recombinant) (domain or fragment) | 1.17 |
